Measured values reported in the DeepSol protein solubility set.

Assay: soluble on expression in E. coli; label from the status in PepcDB or PDB records

Sequence	soluble on expression in E. coli
MLPHSGRMVLIDRITRYGDDFVEAGAQVKPDHILLAGGMLPYTAFIELMAQAVGAYAGIQARKNARPVRLGFLPGTRKLEIFAQSVPVGTHLPATAHMSIQDAGVWACPTANCVGRMRRKLRPEHSFQTAFWHAPHSTCTAPNTMTEQLTPSEQAHIRRTTMTETVLITGSNRGIGKAAALEHHHHHH	not soluble
GHMEERVLGMPAVESNMFPLGKQAPPFALTNVIDGNVVRLEDVKSDAATVIMFICNHCPFVKHVQHELVRLANDYMPKGVSFVAINSNDAEQYPEDSPENMKKVAEELGYPFPYLYDETQEVAKAYDAACTPDFYIFDRDLKCVYRGQLDDSRPNNGIPVTGESIRAALDALLEGRPVPEKQKPSIGCSIKWKPSA	soluble
MSLSGKKVIYFIPIVDTGAYWSPMKKAAEDEAKALGYDLVVKTSPPNETQKNEKHIGFLDEAIKNKAAGIAIAPMDPDMFDKKVKEANDKGIPVVTFDADVKTKENRTSYIGTDNKLAGEQLGENGAKALKEKGITKGKIAMAAVNLTQTTMTYRQDGIKSGFEKVMGADAKNFEWLEPIQDNDQSAESKRQLEGQITSNSDMVAVFSLGSEGPDTGVMEAIKSQGKSGSIYHFGFDYTPTWENGVSSNLISGIVDQDSYAIGKTIIDTLDKKIKGEKVDDVYPVPVKWVTPDKIVEYGKEKQKQFTTELKGIITITTDPNSSSVDKLAAALEHHHHHH	soluble
MGSPTAEELTGCLFFSPDDGRIWLNDQRMLLLHSSSFGTLRREIIERLGQEPARGMFTRAGYLSGARDARLIRERWPLADATSAFRAGTHLHTLEGMAKVESLHFKFDAESGFYEGEFLWHNSCEADEHLAACGTGQDPVCWTEIGYAIGFVSGLFGQMVIFREVECRGMGHASCRVIGKTAEQWGDVERDLSYLSVAKTVAPAHTPALANAHYDAGPPTGTDQPLIGASAAFNAATQALQRVAMTPATVLISGESGVGKEMFARQLHQLSRNREGPFVALNCAAIPDNLIEAELFGVERGAYTGATHSRPGRFERANGGTLFLDEITSLSLAGQSKLLRALQEREIERVGGGHGIKVNVRVVAATNVDLRKAVAEGDFREDLFYRLNVYPIALPPLRERRDDIPLLINAFLQRFCHEYGRTPAGLTMRALKTLLRYDFAGNVRELQNLIERGLIASDEGQAIDLVHIFRNESLPVDSYSLNHDGALSKAAPPIAHTAQGAALLDTLSQEKQAFSIEELEQQLIREALEKSAGNLAAASRLLGLSRAQFA	not soluble
GPGSMTNFSPAKCEMDALFLTSAGTDGHPLAQPFWSSSRSSLPTFDAHRRGTARGRLQNPALIDSIRRSEGSRVGQDTCRYMQAAAASSQKAVHQLLSRLQTYRSFKPFLSPPAPYRDNLFTDDRGFSNFHGPSYGRGSTATVSRDQLWQMVDGILDTSVAQLLQHNAEGHFIMTLQSTLGLEAPISTAKSGTVIESRKAATPAIKGGATELASEERTPAGGPRQPLPPALQKTAVMSSFAPASALADRWALDHPSATAAAIEEQHHAWAKFEQQRQRTSRCFYLQAMQEQLDVLQAEQARDAADTTHSPPSRGDRSHRYLVDMHSPSDSEDAVAKTEEERQQALWHTFHDGPVLGVGASESLHETALGVPGIVSAYLESTDLQDWLHCSWAHRTHRHESAALRIQCAYRVYRARCKVREMRYERRQAFLASLSAERKARQVWDLALQVQKDTTTTTSGTDSTLRALQFFINKVNAVVAKHRARKQYQQRQDAEICRYAATRIQAVYRGHRTRAFVTELRHPEIVALRKHLQQENCAKLIQTCWRRYTAQRQWWRARHAACVLQSMYRCYAARRMLAERRYQRSLEASAELTKFAVQRIERWYASFLAARNAIGRAHVAELLMLQRVCRGYQGRHGVQKERRLSRFRFAVRTIEQRRWRVMEVREAIERRAALSATNAAKRTASMRDDAAVTIQRAWRQRRVLHVC	soluble
NELDVPEQVDKLIQQATSIERLCQHYIGWCPFW	soluble
MLCLGIEGTAEKTGVGIVDEAGNVLSLRGKPLIPEKGGIHPREAAEHHAKWIPRLIAEACRDAGVELGEIGLISFSRGPGLGPALRTVATAARTLALSLDVPIVGVNHCIGHIEIGRLTTGASDPVSLYVSGGNTQVIAFNEGRYRVFGETLDIAVGNMLDQFARESGLGHPGGPVIEQLALKASEYIELPYSVKGMDISFSGLLTAALRKMEAGASLEDLAYSIQETAFSMLVEVTERALAYTEKNQVLLCGGVAVNRRLRDMLREMCQEHHVEFHMPPPEYCGDNGAMIAWLGQLVYKYRGPDALEDTTVVQRYRTDEVDVPWMRESEAGIELPPDILAKGAEANIYRGQWIGRPCIIKERISKGYRIPEIDQKLRSSRTRREARLINQAKGAGVHTPVLFDVDPDGGVMVMEEVRGTPFRDAVEDTELCSRIGEAIGRLHHAGIIHGDLTGSNIIIRGGDVVFIDFGLGRFSDEIEDMGVDLLVLKKSLESTHYALAGECFSRVLEGYGKIIDADIQSKIREIESRGRYTD	soluble
MNRKRKWQIPPPSEPVTDEYLTSVTIGERKPLNDRIQLAEYDLRWPSMFSVAADKIRSALSEKALLVEHVGSTSVPGLAAKLIIDMLLGVTDSADEKSYVLPLEQQGFVLQAREPGWYEHRFFRLKSGDMEWHLHVFSAECEEIDRMLAFRNWLRVHDDDRQRYENVKRTLAARTWKHMQNYADAKSDIVREILGRAQDDHVVGITSEAVSAAFRFR	not soluble
MGSDKIHHHHHHMENILDKLGIELNEQTRLTNDSKFTFNCHSGLSCFNTCCSNLDIVLTPYDILRMKNRLGLTSVEFISEYTEPVIQKESKLPFLKLKLGDEGKCRFVAAEGCTVYGDRPAACRYYPLGFGIYKNEEAGDDFYFLIREDHCKGFEEEREWTVGEWRKNQGVDEYDDKNRVWMEVILNKKLYSPELEPDEKSLKMFFMASYDLDAFRDFVFESRFLDVFDIEEERLEMIKNDEAELMLFAHQWLLFALFKKPTMNLKQV	not soluble
EIVMTQSPATLSVSPGERATLSCRASQSIGNNLHWYQQKPGQAPRLLIYYASQSISGIPARFSGSGSGTEFTLTISSLQSEDFAVYYCQQSNSWPYTFGGGTKVEIK	soluble
MAYSLTRKLLKDWKYFMRHPEKTQGLFHVRPHDSDLHLWHVVMYEPRTSLEVYLLLYIGGNDQDPYIIMKCLSPNCCFPINRTVSMTHLNYLLLKDLGLQDLLFHIWQPLFHIQATEDLQYSPSTVKFNRAWNRIIYKDFKSYFPELIGTLQPGDYSIVKSYSKNHNISNSNGGSVNEFMSSYNAQSHTFHAQDNSKNPYTNSSIGKSSMLSTLNNNNVNKRTHDYNAIDFMTKNLLACDDDSIHPVVSSKRSRTLACPDETNDNRGSEHYTKRKKI	soluble
QSFWEEIAPPFISNEPNVKYIIPNMGIDSKGTIYVTVTKRIQQGANYTSEQLGMYYRPLGDNEQWWKHDPYFDDKIVADIQTDAYGRVYVCTTSSRDQEYQLYINEQNEWRCIFKTSVSTYEHGMAVFRSSTGVTYIGTRHHIFASGVNDFEFNTIYEDSTPMSCRFAEATNSGTIYLALMHETTMSTTILTYQNGEFVDISESELSNSIIASMCSNKEGD	not soluble
MAPATERNRDAILAVLKDELRSPGTVLEIASGTGEHGAYFAPQLPDYFWQPSDPNEESRRSIAAWRSHVNAPNLGEAIAIDVTRSDWVESVPEFPQPVVAIAAINLIHISPWEATLGLFAGAKQLLSVDGLIYLYGAYKRGGQHTAPSNEAFDASLQARNPAWGARNLEDVTAVAEAEQFRLDRIVEMPSNNLSVCFRAIALEHHHHHH	not soluble
EIGLLLAILLFMKRVTENTRITVATGRLDLTQTGEIAHHDEVLDIPKGVEVYEIEGPFFFGIANRFEEIMNTLGDHPDVRIIRMRHVPFMDSTGMHNLENLIKMSRKEGVSIVLSGVRKDVHEELATAGIVELLGEENVCADIQAALRQAQAIAQGA	not soluble
MGSDKIHHHHHHMKHIAVIGAGLGGLSAAISLASKGFKVTVIERNEHIGGKMMPITSEGHRFDFGPNTITMPEIFQSVILESGADPDDYFTFEKLTRHTVNHFPDGRSLTFASGREAMRTEVDRFTKGQLAKNDITGYQDEVRELYNIAKQQFFINIDSYFNFSLLRDMTKVHPFKTLHGLHKKYFKDPQLIQALDRYATYIGSSPFQAPATFGLIAHLELNDGVYFTRGGNTAIAEGFARRARELGVTFRLGDEVTQIEVTNQLATEIELNHVDYLSVDFIVLNGDLLTQYPRLISETVRPDFKNPTPAQMEPSISAYVRCIGLGRRIAGLAHHNVFFSSDYEAEFEALFNQHRYAEEPTIYISNSSVTAPEMGEAGDNLFVLVNAPATHKGSAVDFDTYDKIIDQRLQQFGIDITSDVLFEQRITPQDIEQKFSAYHGSLYGLSSNGTRGAFMRPSNRSKNVHNLFFAGGSTHPGGGSPMVTLSGKLASERIVSAVAATL	not soluble
MSLGDRMKIVMVTHGGEGDAFWDRVRKGAEAAAAKDGVDLTYAGDADTADQADLVRDAIRDKADGIAVTLAKPQAMKAPVAEAKAAGIPVVGLNSGIDAWRSTGLLEYFGQDESVAGRAVGDKLDDLRAKHALCVIHERGNVALEARCAGVKKTFGGETEMLYVEGTDMKAVGAAVTARLRQDPSIDEVVMNGAAFALTAVEAVDEAGSDAHVATFDLDNDLVAAVKRGDVQFAVDQQPYLQGYLAVDALWLYRTNGNVSGGGVAPVLTGPAFVTREGHHHHHH	soluble
MLDKLGGIAVQPEALTWLLTPCRFKAELLTRIENAKTSIYIAALYLEDDEAGREILQVLMTAKANNPALDIKVLVDFHRARRGLIGHKGDSGNYLMYRKVMAEAKHPIEIMGVPVKSREFMGVLHLKGFVIDDAVIYSGASLNNIYLQQNDKYRFDRYHVIESAELARSMRAMIQRYIIADPAVTSLTQDAQQEVLPPKTDVRSFKLRLSQAQYEFNETRSGNRVTPLLGLGRKHNLLNKTVIAMVEESKDRLFICTPYFNPPYILVRALAKHLRKGKRIDIVVGDKTANDFYIPPEQDFSTIGALPYLYEQSLRKFAKRQQWAIDNGQLNIHLWKHGINSYHLKGISTDGRKHLITGSNLNPRAWALDLENGILIHDETGSWKAQFEAEQAHILEHTQRLYHYSQVDTLQSYPDPVKKIMNRIRRLKADFLLRRILLEHHHHHH	soluble
MTEHLDVVIVGAGISGVSAAWHLQDRCPTKSYAILEKRESMGGTWDLFRYPGIRSDSDMYTLGFRFRPWTGRQAIADGKPILEYVKSTAAMYGIDRHIRFHHKVISADWSTAENRWTVHIQSHGTLSALTCEFLFLCSGYYNYDEGYSPRFAGSEDFVGPIIHPQHWPEDLDYDAKNIVVIGSGATAVTLVPALADSGAKHVTMLQRSPTYIVSQPDRDGIAEKLNRWLPETMAYTAVRWKNVLRQAAVYSACQKWPRRMRKMFLSLIQRQLPEGYDVRKHFGPHYNPWDQRLCLVPNGDLFRAIRHGKVEVVTDTIERFTATGIRLNSGRELPADIIITATGLNLQLFGGATATIDGQQVDITTTMAYKGMMLSGIPNMAYTVGYTNASWTLKADLVSEFVCRLLNYMDDNGFDTVVVERPGSDVEERPFMEFTPGYVLRSLDELPKQGSRTPWRLNQNYLRDIRLIRRGKIDDEGLRFAKRPAPVGV	soluble
MFFSEARARSRTWEASPSEHRKWVEVFKACDEDHKGYLSREDFKTAVVMLFGYKPSKIEVDSVMSSINPNTSGILLEGFLNIVRKKKEAQRYRNEVRHIFTAFDTYYRGFLTLEDFKKAFRQVAPKLPERTVLEVFREVDRDSDGHVSFRDFEYALNYGQKEA	not soluble
MLAFIRFLFAGLLLVISHAFAATVQDEHGTFTLEKTPQRIVVLELSFADALAAVDVIPIGIADDNDAKRILPEVRAHLKPWQSVGTRAQPSLEAIAALKPDLIIADSSRHAGVYIALQQIAPVLLLKSRNETYAENLQSAAIIGEMVGKKREMQARLEQHKERMAQWASQLPKGTRVAFGTSREQQFNLHTQETWTGSVLASLGLNVPAAMAGASMPSIGLEQLLAVNPAWLLVAHYREESIVKRWQQDPLWQMLTAAQKQQVASVDSNTWARMRGIFAAERIAADTVKIFHHQPLTVVK	soluble
